Results on 47 sequences are retold here after the NTF2 design screens of Basanta et al. (2020).

This data set is described as follows: protease stability score; higher = more stable; yeast display proteolysis, trypsin and chymotrypsin.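 Further: relative to predicted unfolded state with 0 unfolded-like and 1 meaning tenfold more protease.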
As to “DRDDEMTERALKEHIKNFRTGDFDKLLELADPNVRVDIDGREIHGRENFVKLVLKLMDDLGMKPEDVWVEHVNVFNGKVHMRIVLVTFYGDKRHINDTNVIATKFDGRWILKDVTMV”, the protease stability score was found to be 1.08.

With “SEDEEHAERMLRILIELLLTGNESDFLRYADPNVRTIVGDKTFHGRDEFRTAWEWFLREIRLRHIELKHVEIQGNKVRVHGIWNIEINGRHIRLHVLIEIVVVDGVLRETRFEIR”, the protease stability score came to 1.47.

Turning to “SEDEEAAKRLTDLLIHNWETGNEDELHRLIDPNMREDVNGKEFHGWSYMVHFLRRIDHVFSHITIHDIKSVGDYVYIDGTVDEIFHIGDSKIRINIRVTIIILKINGRWIMTHVHVK”, the protease stability score was found to be 1.32.

In turn, “SEVEERFKEEMHRQFENSETGNEDEVAKYFDPDARMHIDGKEIHGRDEVKRILSEWRLTHITLRDFRIVGNKIHTDAEVVIEIGDKKIRYRVHIIQYKVNGQWRVESFEVK” had a protease stability score of 0.88.

In the case of “SEEEEQVERFLRLWLHALRTGDEDTHERLMDPNTRIQIGNFIFHGRERALKVVHHLIRQIDHIHDFDIHDVRVQGNKVHVDVRLNTHFDGRTIVLNLHIHIHKVDGRWLFTSLSRE”, the protease stability score was determined as 1.23.

Turning to “DETTQYIREILEIMRRTFHTGDFDTMLELMDPHARIVIGEKDEHGWEAAHHQMEYLLREWRIHDVEIRDVELQGDKIRVKLIVTGRIGDKLTLIDVELHVLKVNGKWYLKEISIR”, the protease stability score turned out to be 1.19.

In turn, “THEEELSREATRFMLHVLMTGDPTLTEEQADPRTRVVVGDKELHGMEHLSKWYEDHWRQYPNVRIEFKRTEVQGDKMFLDGRLKVNGRETHVFILAFKINGQWVLEEIRFK” gave a protease stability score of 1.59.

Sequence “DDIHRIIKTALELWLRVLETGDERLIHELLDPDARFVINGKFYHGREVWEEERRQIDHIRMDTFHLKHIDLVNGRLRIEGHIVFTVHVNGRTTRREEDVHFILTKFNGKWEMQSLNIE” gave a protease stability score of 1.15.

For the sequence “DEEEETIRRDAKLTLDLIRTGDEEHLKKMLDPHVRLQIVIGDKTIENHGREEVIRRLRHEWKRFKNMRILIEDKRVVGNWVHFFGTILYNGVEHEAVLDLVLIDGVLHSIRINVI”, the protease stability score is 1.6.

Sequence “DTEERLLHEMLRYLLEWFITGDEELFARLADPNTRTNVNGRHFHGREEMARLLEKWWRDFGVKHVHIEHTRVQGDYLHIDTRLHIGDKDLHVHFKLLVIDGRIRSLEIIIR” yielded a protease stability score of 0.689.

As for “DSEEKWDREFVKDFVHNEKTGDEERLKELMDPHAILLIDINGREIRHHGREAMTEEVDRFLKHAGVDHMDIHDVKIQGDKVRVDIRIEIGDKRQKSHIIIEKINGQWRVTQIHIHVE”, the protease stability score was 0.989.

Take “DEDEENARRFIHELSRILETGDEERLDEMADPDVRIIIGEKHLHGREEFRKWMRHLLKRVKNMQIEVQLTSSEIVGEWVNLDTTLIIRVGDKHYEHRTVVIVLKIDGRWFLHQIHFK”: the protease stability score came out at 1.79.

“SEEHKEMKRSLDESAKALTTGDEEHVTKMVDPNVRIIIGDKTLIGMEKWHEFLKEMRVSIHHIIFRDSDIQGDKIRLDVEVDIRVHYNGREESSKIKSKIILLKFNGKWIIHAVEFD” yielded a protease stability score of 0.833.

“DEEEKIAEEMFRRWVELRETGNEDDRRRLADPHTRMVINGVEYHGRDQFTKFLEHVRREWRYEDNKERDVKFQGDKIEINGREVSHFDGKTVTTDVRIEIVVVNGRLKRFNIHVH” gave a protease stability score of 1.38.

“SDFEEEMKESFRLWVHALMTGDEDLLVELVDPDVRLHVGDKDFHGREHFRRWVHEFILRADHHIIHLRDFDVQGDKLHLHTQVDIKVNGQRHHTRVRIIAIKVDGRWVLTQFDVI” yielded a protease stability score of 2.27.

Turning to “DDEEKRIQEASREMLEIMRTGDEERLKQMADPNARWHTKIDGQEVHRHGREEFIKIFRWVMERLGIDHVELHSIHIYNGQNDIDSRFHFDGRNHRILFIWVVYNGRLHHVRIEIQ”, the protease stability score was 1.58.

“TEEEEHWKHLVELWLRAVETGDEHLLHRLLDPHVKIDYNGKELHGRETHIKIERHFRERYKGLRWEIKHHEIQGDKAHVDFLLNVNGREHRVRIEIIIVNGRVHQIHFDIN”: the protease stability score amounted to 2.23.

“SEVEEEMEEILKKLLTAFRTGDEKTLEDLLDPHVRLEIGDKTHVGWRDIAEFLRRHIERVDHMRINIDHMEIQGEKIHIDGTLHFWIGDKRHHEKVHLIFVIVNGRLKKIHIHKI” came in with a protease stability score of 2.64.

In turn, “DREERDTREALRILHEISRTGDEELLDRQMDPDVKIDFENHEFHGREEASTLIHEIYQKWGLSNVEMDIKRVRTVGEKVDIDGRLHFNGVTRDIRLINLKVNGKWFIHSIIFR” displayed a protease stability score of 1.2.

Consider “SEDEKIAQRLLDLLLESFITGDEQMDRELLDPNVKMEVGDKELHGREEALEWFTRVAKRVDHMRFTLTHMDIIDGRIIIQGRVEQFFNGRKVTTRYNLLVLKIDGRWRIEEIRYH”, for which the protease stability score worked out at 1.42.

Sequence “SEHDKEMREWIKTLFELMYTGDWVILRELADPNAKFRQGDFTKIGREQYERHVRRHLDLLGHDNIEIHWEDVEIVGNYAVFHGHLTFNGKSTHVIIRVFVIDGRMKHEHVEIK” registered a protease stability score of 1.3.

Sequence “DEDEERVKLASELYTHIMHTGDERLTKEFFDPRVRSDINGRELHGREIITEMVSRYKNMTLHSHREEVQGEWAFIDGRMEYGDKEWKIHIITLKVNGRWVVTEIEFH” returned a protease stability score of 0.778.

In the case of “TEEDHHAKRMTKMWEEALITGNEHLVKEMFDPHARYRQGEWDLVGREEISKFVLTNLEEWRIDHHHTHSLHLQGEKSHVRSRVLGIFDGKRFETHLQVDVEVINGKIHDLTIRIT”, the protease stability score worked out at 0.678.

For the sequence “SEHEEHIKRHIEHVIHHWMTGNWEELLRLMDPNVRLILHIGDKEIHSIGMEEILRRLHEYKKKIKNATIHIDHIDMQGDKTTIHETIHIGDYVYDTRIILVIVNGRIKRIEYQVH”, the protease stability score was 0.128.

Sequence “SEEEEELKKFLDIFLRALRTGDFDESLRLMDPRYRSIVGDKRHIGMENLYRWLTEMRIERVHFELDSFRIQGNKLEIDIRNDVDGQIDGKQFRIEFEVHIHMEKYNGKWVVHVLEIR” returned a protease stability score of 0.932.

Sequence “DEDERDARKITDDYLHHLTTGDWNLMDTLADPHMKMDVNGQEIHGRESMVDLMLEWRFEHTDVHDKHVRSYDGKLEIHLDVHSRVHYNGRTDDTRREITLHIHKIDGRWRLEEVRIHYL” registered a protease stability score of 0.695.

Take “DDEIRFLFKIAHLWMRSHSTGDERVLEHLMDPHVRIDFNGVELHGWKDMLTEWKEIRIIIEHVEIDHYDVQGDKMELNGRISGTFHFNGRTRTTDFRSELRFTVINGKLHSVEIHYR”: the protease stability score was determined as 1.41.

The sequence “DEEHEDAVRIWEEFLEAVITGDWDRLKTLLDPNVRLHQGDFEIHGREKIVKTIHEMRIHIHDHRFRDSHFINGRVKLHVESDKEIIYGNKKTRLTVHVTVIIHKVNGVWLVHSVHVE” showed a protease stability score of 0.986.

The sequence “DDEEKYFRMAVHHIIHLLHTGDETDSEHQADPDVRITVGDKRFHGREDFRDWVRELTDRYKNMTFRLKSVDVQGDFIILHGLLHFNGKNVEFDVFSWKFNGKWFMHHIIVR” had a protease stability score of 1.72.

On to “TEDEEAARRHTQEWIHAVRTGDEELLERMIDPEYKLDYNGVDIIGREEYIRIRSEQLQKFKNMRIEVRIHELRHQGDKIDLDVLIIEKWNGVTFRERSHLVILKFDGRWFIRFTSIK”, for which the protease stability score amounted to 0.801.

Sequence “DEEKKLAHKIARILMDLFLTGNEEVWKELMDPHVKFEIGDFIDHGWEAVKRYYEVLGFDHIQETDLESIVIFENHVILHIRIHGEVNGRQVDTTVTLFIEKINGKWYIRTIRIH” gave a protease stability score of 2.5.

For “TEEEETARHMVHEFYEVIKTGDEETFRKLLDPNTKLHVNGKERHGREAIDEMYHRFKNVRIHVEHVDVVDGKIDLRENWIQGDKETIVRIEAHKVDGRWELRSVHIH”, the protease stability score stood at 1.36.

For the sequence “SQDERDVKKFVDLYERTVETGNEEDMERLMDPHVRMEVGDKHEHGRHIVIRVLHELGADHVDIHHVNVQGEKIHIHGRLHVDGRIHHVEIHAKKVNGKWIMKLVIIR”, the protease stability score amounted to 1.11.

As for “DEDHEDSKHALEYMLDSVRTGDEHRMKRLVDPNMKVHWDGVDVVGRELAAKFLSQLRVHSVHLKDHKVFDGQLDLHVHIRQEWDGRHRETRTTFFILKINGRWLVTEVRVD”, the protease stability score turned out to be 0.249.

Sequence “SEHLEIAMRVIREDLIKSSTGDWRRLEDYLDPHVKIQVGNKEIVGWEEVEKNMEHLRIEFRDYRIKDARNIDGKINVHGEIVEIIRVGNKTYQMRTEVDFIATKVDGQWTIHSIRFN” registered a protease stability score of 1.15.

Turning to “SEIHDIARKMMNIVRRLLHTGDEDKWLDLADPDVRIHINGRDFIGRELWVQIYRELGVDHLDLKIERVEIVDGVIILHGTLDIHYGDKTHEIEINIFIRKVNGRWRLKLEHHK”, the protease stability score came out at 1.71.

With “DEKNHLWDEISEIFVQNWVTGDEDSLRHMADPNVRTDINGVELHGMEETNRFIIEELKHARSRVHLEHRDAVNGRIHLQTELYSNVDGQEIRYKTRIILIVVNGRLKEIKFIQH”, the protease stability score is 0.581.

For “TESEKEAHDAVKRSIDSWLTGDEHDMAELLDPNVRLEIGDKTFIGREEFVKWLKDVREKFKGVRLHIRDYRVHVVGDKVRVEIDIQEDYGDKFHDVTLVFILRKIDGRWHNQSVEVRIE”, the protease stability score was 1.58.

With “DDEERDLKRAYELWVHNMLTGNWRMLNYLADPNTKIEFENHKSHGRESLHELLKRLGVDHMHIELEDMHFVGDKIILHTREEHRVGDKEIRTEVHIDARKINGRWRLQSVHFR”, the protease stability score was determined as 0.97.

In turn, “DEEEKLATIVMELIEETWETGDEDLFEQLADPNVRVEIGDKVYIGREIALEWFVREIRKRGAELKHTTTHNLDVQGDKVNNDMKVNGNINGRVVIFTTHLDVRKINGKWFLRSISFK” displayed a protease stability score of 1.29.

Regarding “DEDREDARKIFHDFIRALNTGDEDTLAELLDPNTKIHIGEFNLIGMERVREWLQRVDHTHTHIKVRRVDVVNGQIIMDTETEIHIHIGDFTLEIQTRTEMVILKINGRWFIKRVNLI”, the protease stability score was determined as 1.72.

On to “DQLDKSMKESMTRALEHWETGNERSLENLLDPNTKVVVNGVIVHGWERMSELIHDFWRRLGIDHVEIEDIHNHIQGDKAVLNNKTVINVNGQEIKTTLIIYITKVNGRWTIHSIEIHIH”, for which the protease stability score came out at 1.72.

Sequence “DEERKDFEEALKKWLESMETGDEKHLEELFDPNAKFLIDGVELHGREVFKEFLRRFKNVRVEELHLDHLEVQGDKVITHVTFRGTFNGKHENVHRILIAVKFDGRWFVRSIEVH” gave a protease stability score of 2.34.

Sequence “EEDHSEVERRLEIILHKWETGDERILHHYLDPHAKFIINGREYHGRENALEHWVKSEEDLGVKHERLREYDFRYQGDKVELHTEIELHVGNKVFDIHIIIIARKVNGRWVIEEVRLEFR” yielded a protease stability score of 1.23.

The sequence “DDMERHNRWFLRDLIHAIVTGDEELEERLFDPNAKVHIDGVTFIGRELVEFLRKRVDHRRMHVKRTDSQGEYLINHTELILHINGKDVRTDTVWIFHKFNGQWVVHTMEVK” had a protease stability score of 0.815.

“DDHDKLLQKLMRFWLWAFLTGDEDHFDEMADPNTRLSSIVNGRDIQLHGREQVNKHFKELRLHHFILRTWSVYDGRVEIDGQMDGEYDGRRIDTRVTIIIVIINGRSTREHLDFK”: the protease stability score turned out to be 0.261.

For the sequence “DEEEHLSKEAVRLYIESLHTGDEDLWRSLMDPNARLHINGREFHGMERVLRILREIRIKDTRIRDFHVVNGQVHNRMELEIKVGDKERSFDVELIAYKIDGRWITKSVIHH”, the protease stability score turned out to be 1.29.
